Tested on: HUVECs
Assay: HUVEC proliferation ([3H]-thymidine incorporation)
Assay type: cell-based, human
Conditions: 48 h
Experimental: In brief, fresh synovial tissues were minced into 2- to 3-mm pieces, then treated for 4 h with 4 mg/ml type I collagenase (Worthington Biochemical), and maintained in Dulbecco's Modified Eagle's Medium (DMEM) containing 10% FBS at 37° C. in an atmosphere containing 5% CO2. […] MH7A cells, the immortalized synoviocytes that harbor the SV40 T antigen, were grown in DMEM supplemented with 10% FBS, as previously described (Miyazawa, K, A. Mori, and H. Okudaira. 1998. Establishment and characterization of a novel human rheumatoid fibroblast-like synoviocyte line, MH7A, immortalized with S[…] antigen. J. Biochem. 124: 1153-1162), and then employed in some of the experiments. Human umbilical vein endothelial cells (HUVECs) were isolated from fresh human umbilical cords via collagenase (Worthington Biochemical) digestion, and then maintained in 20% FBS-containing M-199 medium (Sigma, St. Louis, Mo.), as previously described. All HUVECs were used after no more than five passages. The RA FLS, OA FLS, and HUVECs were plated onto 24-well culture dishes at a density of 2×10^4 cells/well, and then permitted to attach overnight. […] Cell growth was also evaluated via cell counts. Control and mitogen-treated cells were harvested by trypsinization, and the number of cells was determined with a hemocytometer, under ×100 magnification.

B1: SAA: Serum amyloid A, multi-functional apolipoprotein, 12- to 14-kDa, SEQ ID NO:19 (protein, listed as Homo sapiens)
chain: MKLLTGLVFCSLVLGVSSRSFFSFLGEAFDGARDMWRAYSDMREANYIGSDKYFHARGNYDAAKRGPGGVWAAEAISDARENIQRFFGHGAEDSLADQAANEWGRSGKDPNHFRPAGLPEKY
- concentration of maximum effects on HUVEC DNA synthesis: 5 µM
- DNA synthesis in HUVECs (SAA 0.1 to 5 μM): dose-dependent manner

Reference: US20100291089A1, “LIGAND OF REGULATING IMMUNE RESPONSE, AND USE THEREOF IN TREATING AN IMMUNE RESPONSE-RELATED DISEASE” (POSTECH ACADEMY-INDUSTRY FOUNDATION, priority 2005, published 2010)
